This is an account of results in the nanobody polyreactivity screen of Harvey et al. (2022).

The nature of the data set: yeast display, Sf9 membrane polyspecificity reagent, FACS + sequencing; frameworks hold sequencing errors. In a few lines: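 Using colony PCR, genes from sorted yeast display clones were amplified, then sequenced on MiSeq at 2 × 250 and filtered by CDR length. The clones had been stained with 10% biotinylated, detergent-solubilized Sf9 membrane reagent for 1 hour at 4 °C and sorted by FACS into low and high (top ~1%) gates on anti-HA and streptavidin fluorescence. Polyreactivity labels come from the gate of origin.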
Take “QVQRVESGGGLVQAGGSLRLSCAASGLTFRRYGMGWYRQAPGKEREWVASISSRGGNTYYADSVKGRLTISRDKAKNTVYLQMNSRKPEETAVYYCAARHVLYGYYLYDYWGQGTQVTVSS”: the “polyreactivity (PSR sort gate)” value is on record as “high polyreactivity”.
Consider “QVQRVESGGGLVQAGGSLRLSCAASGNTFTVNAMGWYRQAPGKERELVAAINYSGGSTYYADSVKGRFTISRDNAKNTVYLQKNSLKPEDTAVYYCAASPDELLYEMYYWGQGTQVTVSS”, for which the “polyreactivity (PSR sort gate)” value is “low polyreactivity”.
With “QVQRVESGGGLVQAGGSLRLSCAASGRIFGKYAMGWYRQAPGKERELVAAIDGSGSTNYADSVKGRFTISRDNAKNTVYLLMNSLKPEDTAVYYCATDHAQKFRYRSPREYWGQGTQVTVSS” the entry was “low polyreactivity”; with “QVQRVESGGGLVQAGGSLRLSCAASGRIFQVYAMGWSRPAPGKERELVAAITWSGGSSYADSVKGRFTISRDNAKNTVFLQMNSLKPEDTAVYYCAAPFYYYGVRFDYRGQGTQVTVSS”, “high polyreactivity”; with “QVQRVESGGGLVQAGGSLRLSCAASGRIFSANAMGWYRQAPGKERELVATISTGGGRTYYADSVKGRFTISRDNAKNTVYLQMNSLKPEDTAVYYCNATRNYARVRYYYWGQGTQVTVSS”, “high polyreactivity”.
“QVQRVESGGGLVQAGGSLRLSCAASGRIFSLNAMGWYRQAPGKEREFVAAISTSSGTTYYADSVKGRFTISRDNAKNTVYLQMNSLKPEDTAVYYCAAKRPSRYYPYRWGFDYWGQGTQVTVSS”: the “polyreactivity (PSR sort gate)” value is given as “high polyreactivity”.
On to “QVQRVESGGGLVQAGGSLRLSCAASGRTFPWNVMGWYRQAPGKERELVAAISWSSGRTYYADSVKGRFTISRDNAKNTVYLQMNSLKPEDTAVYYCAAVYKVHSGLYEYWGQGTQVTVSS”, for which the “polyreactivity (PSR sort gate)” value is given as “high polyreactivity”.
With “QVQRVESGGGLVQAGGSLRLSCAASGRTFWRNAMGWYRQAPGKERELVARISWSGGSTYYADSVKGRFTISRDNAKNTVYLQMNSLKPEDTAVYYCAKYYPGRSAFSDGNYWVQGTQVTVSS” the entry was “low polyreactivity”; with “QVQRVESGGGLVQAGGSLRLSCAASGRTVGYYAMGWYRQAPGKERELLAAITRTGGSTHYADSVKGRFTISRANAKNTVYIQMNSLKPEDTAVYYCARDYRYTIPYDYWGQGTQVTVSS”, “low polyreactivity”; with “QVQRVESGGGLVQAGGSLRLSCAASGSIFPRYAMGWYRQAPGKEREMVATISSGGSTYYADSVKGRFTISRDNAKNTVYLQMNSLKPEHTAVYYCAARKRPYTVINGMDYWGQGTQVTVSS”, “low polyreactivity”.
As for “QVQRVESGGGLVQAGGSLRLSCAASGSIFSVYAMGWYRQAPGKERELVAAITSSGGSTYYADSVKGRFTISRDNAKNTVNFQMKSLKPEDTAVYYCAADKYLRRRSWYRYGYWGQGTQVTVSS”, the entry is “high polyreactivity”.
With “QVQRVESGGGLVQAGGSLRLSCAASGSIFYGNAMGWYRQAPGKERELVAAISWSGGSTYYADSVKGRFTISRDNAKNTVYLQMNSLKPEDTAVYYCATVADEPRAYSGYEESDYWGQGTQVTVSS” the entry was “low polyreactivity”.
On to “QVQRVESGGGLVQAGGSLRLSCAASGSIFYVYVMGWYRLAPGKERELVAGISYRGGSTYYADSVKGRFTISRDNAKNTVYLQMNSLKPEDTAVYYCNAGVWTYWHIEMDYWGQGTQVTVSS”, for which the “polyreactivity (PSR sort gate)” value is recorded as “low polyreactivity”.
As for “QVQRVESGGGLVQAGGSLRLSCAASGSTFKKYVMGWYRPAPGKERELVAAISGRGGSTYYADSVKGRFTISRDNAKNTVYLQMNSLKPEDTAVYYCNARKQTARFDSWGQGTQVTVSS”, the entry is “high polyreactivity”; as for “QVQRVESGGGLVQAGGSLRLSCAASGSTFSSYAMGWYRQAPWKERELVAAISRSGGSTHYADSLKGRFTISRDNAKNTVYLQMNSLKPEDSAVYYCAADTGRYLDSNYWGQGTQVTVSS”, “high polyreactivity”; as for “QVQRVESGGGLVQAGGSLRLSCAASGSTFVGYAMGWYRQAPGKERELVAAINDSGGSTYYADSVKGRFTISRDNAKNTVYLQMNSLKPEDTAVYYCAADSSGTSWYTFDYWGQRTQVTVSS”, “low polyreactivity”.
With “QVQRVESGGGLVQAGGSLRLSCAASGYTFQWYDMGWYRQAPGKERELVASISWRGGSTYYADSVKGRFTISRDNAKNTVYFQMNSLKPEDTAVYYCAASLLPDYQYDYWGQGTQVTVSS”, the “polyreactivity (PSR sort gate)” value is listed as “low polyreactivity”.
As for “QVQRVESGGGLVQAGGSLRLSCAASRRIFKLYAMGWYIQAPGKERELVAAINRRGGSTSYADSVKVRFTISRDYAKNTVYLQMNSLKPEDTAVYYCAASYTGRTVVQGYEYWGQGTQVTVSS”, the “polyreactivity (PSR sort gate)” value is reported as “high polyreactivity”.
With “QVQRVESGGGLVQAGGSLRLSGAASGFTFHSYAMGWFRQPPGKERELVAAISTGGTRTYYADSVKGRFTISRDNAKNTVYLQMNSLKPEDTAVYYCAADLSRRVRIYSKYDSWGQGTQVTVSS” the entry was “high polyreactivity”; with “QVQRVESGGGLVQAGGSLRLSSAGSGFTYYRNAMGWYRQAPGKERELVAAISFSGGSTYYADSVKGRFTISRDNAKNTVYLQMNSLKPEDTAVYYCAREDYSHSFLTYDYWGQGTQLTVSS”, “low polyreactivity”.
As for “QVQRVESGGGLVQAGGSLRVSCAASGSTFYVYGMGWYRQAPGKERELVAAISWSGGDTYYADSVKGRCTISRDNAKNTVYLQMNRLKPEDTAVYYCAAVYNYPVVGEYDYWGQGTQVTVSA”, the entry is “high polyreactivity”; as for “QVQRVESGGGLVQAGRSLRLSCAASGTIFGPYAMGWYRQAPGKERELVAAITIGRDNTYYADSVKGRFTISRDNAKNTVYLQINSLKPEDTAVYYCAAKYYGGKPHYYEYYYWGQGTQVTVSS”, “low polyreactivity”.
Turning to “QVQRVESGGGLVQAGRSLRLSCAATGITFWVYAMGWYRQAPGKERELVAAISRRGGSTSYADSVKGRFTISRDNAKNTVYLQMNSLKPEDTAVYYCAATTYTHPYGYWGQGTQVTVSS”, the “polyreactivity (PSR sort gate)” value is on record as “high polyreactivity”.
With “QVQRVESGGGLVQEGGSLRLSCAASGITFAGYAMGWYRQAHGKERELVAAISTRGGSTTYADSVKGRFTISLDNAKNTVYLQMNRLKPEDTAVYYCAADSYYRRYFGWYEYWGQGTQVTVSS” the entry was “high polyreactivity”; with “QVQRVESGGGLVQSGGSLRLSCAASGRIFYLYARGWNSQAPGKERELVAAITWSGGSTTYADSVKGRFTISRDNAKNTVYLQMNSLKPEDTAVYYCNADGWSFPSFSPMDYWGQGTQVTVSS”, “low polyreactivity”.
As for “QVQRVESGGRLVQAGGSLRLSCAPSGFTFQDYAMGWSRQAPGKERELVAAISRNGGSTYYADSVKGRFTISRDNAKNTVYLQMNSLKPEDTAVYYCNADSHHRRGSRDYCGQGTQVTVSS”, the entry is “low polyreactivity”; as for “QVQRVESGGVLVQAGGSLRLSCAASGITFYVYAMGWYRQAPGKERELVASITRSVGITSYADSVKGRFTISRDNSKNTVYLQMNSLKQEDSAVYYCAAERSNLHYNIQGVGYWGQGTQVTVSS”, “low polyreactivity”; as for “QVQRVESRGGLVQAGGSLRLSCAASGSTFHRYVKGWSRTATGKERELVSVINSTGASTYYADSVKWRYTLSRDNAKNSVYLQMNSLKPEDTAVYYCARVTRRGPGYTTLYSRYDYWGQGTQVTVSS”, “low polyreactivity”.
With “QVQRVESVGGLVQAGGSLRFSCAASGSTFTANAMGWYRQAPGKEREFVAAITQSGGDTYYADSVKGRFTISRDNAKNTVYLQMNSLKPEDSEVYYCAAESAYFVALTHFYTVEFYYWGQGTQGTVSS” the entry was “low polyreactivity”.
With “QVQRVETGRGIVQAGGILRLSCAASGRTFHLYAMGWYRQQPGKERELVADIDGDGGSTYYSDSVKGRFTISRDNAKNTVYLQMNSLKPEDTAVYDCAASRFDYWGQGTQVTVSS”, the “polyreactivity (PSR sort gate)” value was “low polyreactivity”.
